In paper PMC7244311:

Target: talin R3 IVVI domain in the (R3)-(I91)8 construct (mouse)
Test: magnetic tweezers force spectroscopy

Substance: vinculin head (domain or fragment)
- concentration at half the maximum binding velocity, 9 pN: 90 nM
- stoichiometry N: 2
